# Experimental data: patent US20180282719A1 (published 2018)
# Numbering of substitutions follows the chain as printed.
# T1: recombinant soluble human IL-6 receptor (SR344) (human, UniProt P08887 20-344, biotinylated (sites not given) where immobilized via streptavidin or used in phage ELISA)
# T1 construct: also called soluble IL-6 receptor; membrane-type IL-6 receptor (when biotinylated and immobilized on the chip)
# T1 sequence (looked up): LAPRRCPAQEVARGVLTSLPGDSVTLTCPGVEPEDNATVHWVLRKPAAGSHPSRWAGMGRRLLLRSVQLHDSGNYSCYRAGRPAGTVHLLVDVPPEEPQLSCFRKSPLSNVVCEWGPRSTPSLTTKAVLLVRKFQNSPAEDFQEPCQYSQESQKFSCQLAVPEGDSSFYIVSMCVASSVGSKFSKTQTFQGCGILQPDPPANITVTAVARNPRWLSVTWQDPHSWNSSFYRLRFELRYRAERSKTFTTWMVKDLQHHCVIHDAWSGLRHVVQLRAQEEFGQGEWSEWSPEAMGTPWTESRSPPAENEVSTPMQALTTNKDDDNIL
# B1: Fv4-IgG1 (antibody)
# heavy: not shown
# light: DIQMTQSPSSLSASVGDSVTITCQASTDISSHLNWYQQKPGKAPELLIYYGSHLLSGVPSRFSGSGSGTDFTFTISSLEAEDAATYYCGQGNRLPYTFGQGTKVEIERTVAAPSVFIFPPSDEQLKSGTASVVCLLNNFYPREAKVQWKVDNALQSGNSQESVTEQDSKDSTYSLSSTLTLSKADYEKHKVYACEVTHQGLSSPVTKSFNRGEC
# notes: VH3-IgG1 / VL3-CK
# B2: humanized PM1 antibody (wild type, WT) (antibody, human IgG1, kappa, V domains shown)
# VH: QVQLQESGPGLVRPSQTLSLTCTVSGYSITSDHAWSWVRQPPGRGLEWIGYISYSGITTYNPSLKSRVTMLRDTSKNQFSLRLSSVTAADTAVYYCARSLARTTAMDYWGQGSLVTVSS
# VL: DIQMTQSPSSLSASVGDRVTITCRASQDISSYLNWYQQKPGKAPKLLIYYTSRLHSGVPSRFSGSGSGTDFTFTISSLQPEDIATYYCQQGNTLPYTFGQGTKVEIKR
# notes: IgG1; also called WT-IgG1; wild type humanized anti-IL-6 receptor antibody
# B3: H170/L82 (antibody, IgG1, V domains shown)
# VH: QVQLQESGPGLVKPSETLSLTCAVSGHSISHHHAHSWVRQPPGEGLEWIGYISYSGITHYNPHLKGRVTISRDTSKNQFSLKLSSVTAADTAAYYCARVLARITAMDHWGEGTLVTVSS
# VL: DIQMTQSPSSLSASVGDSVTITCQASQDISSHLNWYQQKPGKAPELLIYYGSHLHSGVPSRFSGSGSGTDFTFTISSLEAEDAATYYCGQGNRLPYTFGQGTKVEIE
# notes: expressed and purified as IgG (IgG1); also called H170/L82-IgG1
# B4: H3pI/L73 (antibody, IgG1, V domains shown)
# VH: B3 VH with H32D, H59N, H63S, V99S, I103T, H108Y
# VL: B3 VL with D28H
# notes: tested as IgG1; also called H3pI/L73-IgG1; H3pl/L73
# Biological target: T1, recombinant soluble human IL-6 receptor …
# Test: SPR Biacore T100, antibody on protein A/G chip, SR344 analyte, pH 7.4, 37 C
# Experimental: (§1) Kinetic analysis of antigen-antibody reactions at pH 7.4 and pH 5.8 was carried out using a Biacore T100™ surface plasmon resonance system (GE Healthcare) for the four types of antibodies prepared: WT-IgG1, H54/L28-IgG1, H170/L82-IgG1, and Fv4-IgG1 (buffer: 10 mM MES (pH 7.4 or pH 5.8), 150 mM NaCl, 0.05% Surfactant P20 (polyoxyethelene sorbitan monolaurate)). The antibodies were bound to a sensor chip on which recomb-protein A/G (Pierce) was immobilized by amine coupling, and SR344 adjusted to an appropriate concentration was injected therein as an analyte. The association with and dissociation from SR344 of each type of antibody were observed on a real-time basis. All the measurements were carried out at 37° C. Association rate constants kₐ (1/Ms) and dissociation rate constants kd (1/s) were calculated using Biacore T100™ Evaluation Software (GE Healthcare), and dissociation constants KD (M) were calculated based on those values (Table 17).
Kd,koff,kon,Binder
0.97 nM,0.00095 s⁻¹,980000 M⁻¹ s⁻¹,B1
1.9 nM,0.00094 s⁻¹,490000 M⁻¹ s⁻¹,B2
1.6 nM,0.0011 s⁻¹,670000 M⁻¹ s⁻¹,B3

# Biological target: T1, recombinant soluble human IL-6 receptor …
# Test: SPR Biacore T100, biotinylated SR344 on streptavidin chip (model of membrane IL-6 receptor), antibody 0.5 ug/mL as analyte, bound at pH 7.4, dissociation at pH 7.4, 37 C
# Experimental: The binding to membrane IL-6 receptor was evaluated by evaluating the binding to the IL-6 receptor immobilized onto a sensor chip. SR344 was biotinylated according to a method known to persons skilled in the art, and the biotinylated SR344 was immobilized on the sensor chip via streptavidin by utilizing the affinity between streptavidin and biotin. All the measurements were carried out at 37° C., and the mobile phase buffer contained 10 mM MES (pH 5.8), 150 mM NaCl and 0.05% TWEEN® 20 (polyoxyethelene sorbitan monolaurate). The pH-dependent binding clones were injected therein under the condition of pH 7.4 and allowed to bind to SR344 (injection sample buffer: 10 mM MES (pH 7.4), 150 mM NaCl, 0.05% TWEEN® 20 (polyoxyethelene sorbitan monolaurate)), and the pH-dependent dissociation of each clone at the mobile phase pH of 5.8 was observed (FIG. 10).
# The dissociation rate […]) at pH 5.8 was calculated using Biacore T100™ Evaluation Software (GE Healthcare) by fitting only the dissociation phase at pH 5.8, where 0.5 μg/mL of the sample was bound in 10 mM MES (pH 7.4), 150 mM NaCl, and 0.05% TWEEN® 20 (polyoxyethelene sorbitan monolaurate), and dissociated in 10 mM MES (pH 5.8), 150 mM NaCl, and 0.05% TWEEN® 20 (polyoxyethelene sorbitan monolaurate). Similarly, the dissociation rate (kd(1/s)) at pH 7.4 was calculated using Biacore T100™ Evaluation Software (GE Healthcare) by fitting only the dissociation phase at pH 7.4, where 0.5 μg/mL of the sample was bound in 10 mM MES (pH 7.4), 150 mM NaCl, and 0.05% TWEEN® 20 (polyoxyethelene sorbitan monolaurate), and dissociated in 10 mM MES (pH 7.4), 150 mM NaCl, and 0.05% TWEEN® 20 (polyoxyethelene sorbitan monolaurate).
row,koff,Binder
1,0.000484 s⁻¹,B2
2,0.000344 s⁻¹,B4
3,0.00077 s⁻¹,B3

# Biological target: T1, recombinant soluble human IL-6 receptor …
# Test: SPR Biacore T100, biotinylated SR344 on streptavidin chip (model of membrane-type IL-6 receptor), antibody as analyte, bound at pH 7.4, dissociation at pH 5.8, 37 C
# Experimental: (§2) Binding to the membrane-type IL-6 receptor was evaluated by evaluating binding to the IL-6 receptor immobilized on a sensor chip. SR344 was biotinylated in accordance with a method known among persons with ordinary skill in the art, and the biotinylated SR344 was immobilized on the sensor chip via streptavidin using the affinity between streptavidin and biotin. All the measurements were carried out at 37° C. The mobile phase buffer was 10 mM MES (pH 5.8), 150 mM NaCl and 0.05% TWEEN® 20 (polyoxyethelene sorbitan monolaurate).
# (§3) The pH-dependently-binding clones were injected under the condition of pH 7.4 to allow them to bind to SR344, and then, the pH-dependent dissociation of each clone at the pH of the mobile phase, pH 5.8, was observed. The results are shown in FIG. 21 (results for Fv1-M71, Fv1-M73, Fv3-M71, and Fv3-M73 are shown in FIG. 21, while results for other clones are shown in FIGS. 17 and 19). Analyses were carried out in the same manner as in Example 10 and the pH dependencies of the dissociation rate constants of all of the eleven types of clones are shown in Table 12.
row,koff,Binder
1,0.0026 s⁻¹,B1
2,0.00025 s⁻¹,B2
3,0.00067 s⁻¹,B4

# Biological target: T1, recombinant soluble human IL-6 receptor …
# Test: SPR Biacore T100, biotinylated SR344 on streptavidin chip (model of membrane-type IL-6 receptor), antibody 0.25 ug/mL as analyte, bound at pH 7.4, dissociation at pH 5.8, 37 C
# Experimental: as §2, §3
row,koff,Binder
1,0.0026 s⁻¹,B1
2,0.00025 s⁻¹,B2
3,0.00067 s⁻¹,B4

# Biological target: T1, recombinant soluble human IL-6 receptor …
# Test: SPR Biacore T100, antibody on protein A/G chip, SR344 analyte, 37 C, ratio of pH 5.8 to pH 7.4
# Experimental: as §1
KD (pH 5.8)/KD (pH 7.4),kd (pH 5.8)/kd (pH 7.4),Binder
27.3,38.8,B1
1.6,2.9,B2
61.9,11.4,B3

# Biological target: T1, recombinant soluble human IL-6 receptor …
# Test: SPR Biacore T100, biotinylated SR344 on streptavidin chip (model of membrane-type IL-6 receptor), antibody 0.25 ug/mL as analyte, 37 C
# Experimental: as §2, §3
row,kd (pH 5.8)/kd (pH 7.4),Binder
1,5.56,B1
2,1,B2
3,2.59,B4
